Experimental data: patent US20170114104A1
Residue numbers refer to the chain shown, from its start.

B1: Monodin (MA) (designed binder)
chain: FDASNFKDFSSIASASSSWQNQHGSTMIIQVDSFGNVSGQYVNRAEGTGCQNSPYPLTGRVNGTFIDFSVKWNNSTENCNSNTQWTGYAQVNGNNTEIVTRWNLKYEGGSGPAIWQGQDTFQYVPTTE
B2: Rhizavidin (RA) (protein)
chain: B1 chain with H23S, E46Q, D67A, K71G, N82A, Q84G, R101S, K105A, W115E

Target: Biotin-AP (biotinylated AP-peptide with a fluorescent dye)
Assay: native-PAGE off-rate under excess biotin, 37 °C

koff [s⁻¹]	Binder
5.1e-05	B1
4.9e-05	B2
